Data from the Immune Epitope Database (IEDB).
pIC50: −log10 of the molar value.

Key:
[1] = target: HLA-A*02:02; test: IEDB peptide-MHC binding, cellular MHC/competitive/fluorescence; ≥ and ≤ were set here for values at or beyond the usual limits of such assays
[2] = target: HLA-A*02:03; test: IEDB peptide-MHC binding, purified MHC/competitive/radioactivity; ≥ and ≤ were set here for values at or beyond the usual limits of such assays
[3] = target: HLA-A*02:01; test: as above
[4] = target: HLA-A*68:02; test: as above
[5] = target: HLA-A*02:06; test: as above
[6] = target: HLA-A*02:01; test: IEDB peptide-MHC binding, cellular MHC/competitive/fluorescence; ≥ and ≤ were set here for values at or beyond the usual limits of such assays
[7] = target: HLA-A*68:02; test: as above
[8] = target: HLA-A*02:06; test: as above; details: source organism: Vaccinia virus WR
[9] = target: HLA-A*02:02; test: IEDB peptide-MHC binding, purified MHC/competitive/radioactivity; ≥ and ≤ were set here for values at or beyond the usual limits of such assays; details: source organism: Vaccinia virus WR
[10] = source organism: Vaccinia virus WR
[11] = source organism: Mammarenavirus lassaense
[12] = source organism: Influenza A virus

Sequence | pIC50 [1, 10] | pIC50 [2, 10] | pIC50 [3, 10] | pIC50 [4, 10] | pIC50 [5, 10] | pIC50 [6, 10] | pIC50 [7, 10] | further results
ITRLEVIGL | 5.26 | 6.67 | 5.44 | 5.35 | 6.11 |  |  | 
GVPHSVFIA | 5.27 | 5.44 |  | 5.52 | 7.00 | 5.27 |  | 
DISDVKVLAA | 4.47 | 5.66 |  | 5.30 | 5.34 | ≤ 4.15 |  | 
MAAAKTPVIV | 5.22 | 6.81 |  | 5.92 | 5.44 | 5.07 |  | 
TISWMMKLGI | 5.11 | 6.01 | 5.34 | 5.83 | 5.56 |  |  | 
VILKDPRIA | 4.97 | 6.22 | 6.16 |  | 6.50 |  | 4.42 | 
TQVKELGIA | 5.14 | 7.28 |  |  | 7.25 | 4.91 | 4.63 | 
KTRLFRSPQV | 5.03 | 6.01 |  |  | 6.36 | 5.15 | 5.21 | 
DLTALLSCI | 5.28 | 6.00 |  | 5.75 | 5.31 | 4.87 |  | 
ITPNNLNKI | 4.84 | 6.06 |  |  | 6.39 | 4.47 | 4.87 | 
MSIQLINKAV |  |  |  |  |  |  |  | pIC50 [1, 11]: 4.94; pIC50 [6, 11]: 5.14; pIC50 [2, 11]: 5.75; pIC50 [4, 11]: 7.96; pIC50 [5, 11]: 6.21
QQLCTMERT | ≤ 4.15 | 5.34 |  |  | 6.03 | 4.33 | ≤ 4.15 | 
KINNNRIVAM | 5.04 | 5.89 |  |  | 5.50 | 4.63 | 4.64 | 
VLEKKVCAI | 4.84 | 5.64 | 5.86 |  | 5.47 |  | 4.34 | 
STFNMWREI | 5.24 | 6.15 |  | 7.70 | 7.02 | 5.25 |  | 
CTIVDSMII | 4.86 | 5.75 |  | 5.51 | 5.34 | 5.29 |  | 
VAMLLTHGA | 5.14 | 6.20 |  |  | 6.14 | 5.05 | 5.02 | 
DLLLPSTDV | 4.82 | 5.41 | 5.83 |  | 5.98 |  | 4.88 | 
HINDQKFDDV | 5.23 | 5.94 |  | 5.95 | 5.92 | 4.88 |  | 
NVMGMIGI |  |  |  |  |  |  |  | pIC50 [1, 12]: 5.23; pIC50 [6, 12]: 4.84; pIC50 [2, 12]: 5.32; pIC50 [4, 12]: 6.73; pIC50 [5, 12]: 5.69
CALVSDCAST | 5.19 | 6.84 | 6.83 |  | 5.59 |  | 4.28 | 
GAAITLVVI | 5.19 | 5.48 | 5.97 |  | 5.53 |  | 5.14 | 
FAFIDFSKST | 4.93 | 5.62 |  |  | 5.85 | 5.11 | 5.30 | 

Sequence | pIC50 [1, 10] | pIC50 [2, 10] | pIC50 [3, 10] | pIC50 [4, 10] | pIC50 [5, 10] | pIC50 [6, 10] | pIC50 [7, 10] | further results
NINIEVKLFI | 4.90 | 5.69 | 5.93 |  | 5.64 |  | 5.13 | 
LTQVKELGIA | 4.93 | 6.82 |  |  | 7.74 | 4.41 | 4.87 | 
VIDRLPSET | 5.15 | 6.13 | 5.46 |  | 5.44 |  | 5.07 | 
VTDKTAYIGT | 4.66 | 5.40 |  |  | 6.64 | 5.18 | 5.19 | 
SASDMQKFTI | 4.97 | 5.91 |  | 6.31 | 5.37 | 4.87 |  | 
YVILKDPRIA | 5.22 | 6.45 |  |  | 5.72 | 4.40 | 4.72 | 
VTLNRIKIA | 4.88 | 6.39 | 5.96 |  | 6.20 |  | 4.58 | 
FIISTLNKIL | 5.29 | 8.74 | 6.77 |  | 8.09 |  | 4.93 | 
YLVQQESSFV |  |  |  |  |  |  |  | pIC50 ([1]; source organism: SARS-CoV1): 4.90; pIC50 ([2]; source organism: SARS-CoV1): 7.77; pIC50 ([3]; source organism: SARS-CoV1): 7.12; pIC50 ([4]; source organism: SARS-CoV1): 5.47; pIC50 ([5]; source organism: SARS-CoV1): 6.41
ITPTIEDDKI | 4.73 | 5.38 |  | 5.66 | 5.82 | 4.73 |  | 
STIANSNII | 5.21 | 5.83 |  | 7.46 | 5.91 | 4.90 |  | 
NTFVNFNSV | 5.30 | 7.00 |  | 8.24 | 9.46 |  |  | 
LVQYRILPMI | 4.90 | 5.92 | 5.60 |  | 6.15 |  | 4.90 | 
GALYLGHSA | 5.12 | 5.72 |  |  | 6.10 | 4.65 | 4.89 | 
NIYRLFTRCA | 5.00 | 6.86 | 6.09 | 6.60 | 7.64 |  |  | 
NIKPVIVPDI | 4.99 | 6.13 |  |  | 6.02 | ≤ 4.15 | 5.02 | 
YIWIKNLET | 4.90 | 5.93 |  |  | 6.46 |  | 4.49 | 
IVQSVLRDI | ≤ 4.15 | 7.00 |  |  | 5.88 | 4.33 | 4.32 | 
IVAAVIIMA | 4.98 | 5.58 | 5.74 | 7.62 | 5.45 |  |  | 
HTNHSDISM | 5.05 | 5.38 |  | 7.59 | 5.92 | 4.92 |  | 
CVNGSCFTV |  |  |  |  |  |  |  | pIC50 [1, 12]: 4.91; pIC50 [2, 12]: 5.95; pIC50 [3, 12]: 5.40; pIC50 [4, 12]: 5.49; pIC50 [5, 12]: 5.70
AAMDDFQLI |  |  |  |  |  |  |  | pIC50 [1, 12]: 5.02; pIC50 [6, 12]: 5.10; pIC50 [7, 12]: 4.24; pIC50 [2, 12]: 5.76; pIC50 [5, 12]: 7.00
EVIERINLLV | 4.71 | 5.48 | 5.57 | 7.70 | 6.52 |  |  | 

Sequence | pIC50 [1, 10] | pIC50 [2, 10] | pIC50 [3, 10] | pIC50 [4, 10] | pIC50 [5, 10] | pIC50 [6, 10] | pIC50 [7, 10] | further results
FTDCRTIDA | 4.96 | 5.57 | 5.42 | 5.47 | 5.57 |  |  | 
DLKHATDYIA | 5.06 | 5.53 |  |  | 5.98 | 4.79 | 5.03 | 
KTPLYYLSGT | 4.66 | 5.51 |  |  | 5.85 | 4.35 | 4.46 | 
QVKELGIAI | 5.04 | 6.05 |  |  | 5.43 | 4.97 | 5.12 | 
IVCSKTVKNV | 4.96 | 6.30 | 5.85 | 5.76 | 5.56 |  |  | 
YASLTTIGTI | 5.20 | 6.40 |  | 6.88 | 7.08 | 5.07 |  | 
STVDVRNIV | 5.20 | 5.46 |  | 7.74 | 5.79 | 5.09 |  | 
RTIDAINKCV | 4.97 | 6.48 |  | 6.54 | 6.47 | 4.60 |  | 
VQLSNNKYV | 5.13 | 6.27 | 5.74 |  | 6.67 |  | ≤ 4.15 | 
AVIIMAINV | 5.04 | 5.56 | 6.02 | 5.91 | 7.19 |  |  | 
EISSNDNAKI | 4.95 | 6.71 | 6.29 | 6.91 | 6.79 |  |  | 
GIKGLDERFV | 5.21 | 6.07 | 5.36 | 6.31 | 6.03 |  |  | 
DINVIGLIVI | 5.15 | 5.55 | 5.87 | 5.66 | 5.55 |  |  | 
VQLPKRGVRV | 4.47 | 5.66 | 5.78 |  | 7.39 |  | 4.25 | 
KLVETGFVI | 4.88 | 5.97 |  | 5.98 | 6.70 | 4.85 |  | 
SLCPIRGWAI |  |  |  |  |  |  |  | pIC50 [1, 12]: 5.26; pIC50 [7, 12]: 4.79
NVTYNIKPV | 4.64 | 6.82 |  | 6.42 | 6.07 | 5.20 |  | 
GVLIAGIIL | 5.28 | 5.98 | 6.26 |  | 6.02 |  | 4.77 | 
ITLVVISVI | 4.82 | 5.74 | 6.26 |  | 5.99 |  | 5.22 | 
VADLSARNKL |  | 5.67 |  |  |  | 4.64 | 5.15 | pIC50 [8]: 4.44; pIC50 [9]: 5.93
SVGTGILFM |  | 5.65 |  |  |  | 5.29 | 4.24 | pIC50 [8]: 4.68; pIC50 [9]: 5.96
